The target of test [1] is T1, human GLP-1 receptor (human, UniProt P43220 24-463). Put plainly: cell-based or functional assay.
Test [2] has as its target T2, mouse GLP-1 receptor (mouse, UniProt O35659 22-463).
T2 sequence (looked up): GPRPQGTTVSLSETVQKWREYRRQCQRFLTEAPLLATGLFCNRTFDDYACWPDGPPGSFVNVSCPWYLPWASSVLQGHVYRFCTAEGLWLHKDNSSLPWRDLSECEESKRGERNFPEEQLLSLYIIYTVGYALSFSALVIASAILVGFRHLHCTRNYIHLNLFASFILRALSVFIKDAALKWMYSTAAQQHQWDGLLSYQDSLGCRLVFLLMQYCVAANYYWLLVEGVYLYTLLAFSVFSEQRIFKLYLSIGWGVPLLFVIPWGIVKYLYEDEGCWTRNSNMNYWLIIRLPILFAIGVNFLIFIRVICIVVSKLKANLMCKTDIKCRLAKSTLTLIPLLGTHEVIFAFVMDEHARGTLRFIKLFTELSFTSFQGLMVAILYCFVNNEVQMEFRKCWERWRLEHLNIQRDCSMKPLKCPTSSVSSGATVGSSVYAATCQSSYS
The test is described as follows: cell-based or functional assay.

The target in test [3] is T1, human GLP-1 receptor. Put plainly: 125I-GLP-1 displacement, membranes of CHOK1 cells expressing human GLP-1 receptor.
Test [4] concerns the target T1, human GLP-1 receptor. Put plainly: cell-based or functional assay. The source holds these as a separate data set.
Test [5] deals with T2, mouse GLP-1 receptor. Put plainly: cell-based or functional assay. This is another data set of the same source.
Test [6] has as its target T1, human GLP-1 receptor. The test is described as follows: 125I-GLP-1 displacement, membranes of CHOK1 cells expressing human GLP-1 receptor. The method, then: (§1) Membrane Preparation. […] Cells were sedimented at 1500 rpm for 10 minutes. The resulting pellets were homogenized in 15 mls of ice cold sucrose buffer (25 mM Tris-HCl, 0.32 M Sucrose, 0.25 g/L, sodium azide, pH 7.4) with a motorized, glass fitted, Teflon homogenizer. The homogenate was centrifuged at 48,000×g at 4° C. for 10 minutes, resuspended in 25 ml assay buffer (50 mM Tris-HCl, 5 mM MgCl₂, 10 mg/ml protease-free BSA, 0.1 mg/ml STI, and 0.1 mg/ml Pefabloc, pH 7.4) with a Tissue-Tearor (Biospec Products), then centrifuged again at 48,000×g for 10 minutes. The pellets were homogenized for a third time in 15 ml assay buffer using the Tissue-Tearor and again centrifuged at 48,000×g for 10 minutes. The resulting pellet was resuspended in assay buffer at a wet weight concentration of 4 mg/ml.
Ligand Binding Assay. Binding assays were performed in 96-well U-bottom plates. […] The reaction was terminated by rapid filtration through Unfilter-96 GF/C glass fiber filter plates (FilterMate 196 Packard Harvester, PerkinElmer, Shelton, Conn.) pre-soaked in 0.5% polyethylenimine, followed by three washes with 300 μl of cold 50 mM Tris-HCl, pH 7.4. Bound radioactivity was determined using a TopCount microplate scintillation and luminescence counter (Packard Instrument Company, PerkinElmer, Shelton, Conn.). Nonlinear regression analyses of resulting concentration curves were performed using GraphPad Prism (GraphPad Software, Inc., San Diego, Calif.).
The pegylated molecules were conjugated at the cysteine at position 38.

The target in test [7] is T3, mouse GLP-1 receptor (mouse), O35659.
T3 chain: T2 sequence (looked up)
Put plainly: cell-based or functional assay.

Test [8] addresses T1, human GLP-1 receptor. Put plainly: cell-based or functional assay. This is another data set of the same source.
For test [9], the target named is T1, human GLP-1 receptor. Put plainly: 125I-GLP-1 displacement, membranes of CHOK1 cells expressing human GLP-1 receptor. The method, then: as §1
Ligand Binding Assay. Binding assays were performed in 96-well U-bottom plates. […] The reaction was terminated by rapid filtration through Unfilter-96 GF/C glass fiber filter plates (FilterMate 196 Packard Harvester, PerkinElmer, Shelton, Conn.) pre-soaked in 0.5% polyethylenimine, followed by three washes with 300 μl of cold 50 mM Tris-HCl, pH 7.4. Bound radioactivity was determined using a TopCount microplate scintillation and luminescence counter (Packard Instrument Company, PerkinElmer, Shelton, Conn.). […]
This is another data set of the same source.

Test [10] has as its target T4, human GLP-1 receptor (human), P43220.
T4 chain: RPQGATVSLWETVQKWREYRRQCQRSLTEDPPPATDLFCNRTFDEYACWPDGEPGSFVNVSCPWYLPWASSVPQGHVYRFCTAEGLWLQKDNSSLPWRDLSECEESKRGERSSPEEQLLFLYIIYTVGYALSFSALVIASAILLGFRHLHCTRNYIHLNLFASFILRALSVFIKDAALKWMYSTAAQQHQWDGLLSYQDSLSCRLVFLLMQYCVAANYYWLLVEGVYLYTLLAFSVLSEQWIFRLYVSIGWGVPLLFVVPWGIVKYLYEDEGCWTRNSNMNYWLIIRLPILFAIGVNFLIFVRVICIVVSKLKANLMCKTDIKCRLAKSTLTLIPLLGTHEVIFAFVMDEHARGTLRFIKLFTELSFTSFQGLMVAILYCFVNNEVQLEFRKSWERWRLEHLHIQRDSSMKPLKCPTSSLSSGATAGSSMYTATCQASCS
The test is described as follows: cell-based or functional assay.

The target is the same in test [11]. Put plainly: 125I-GLP-1 displacement, membranes of CHOK1 cells expressing human GLP-1 receptor.
Test [12] deals with T2, mouse GLP-1 receptor. The test is described as follows: cell-based or functional assay. This is another data set of the same source.

Data on 9 molecules can be found in patent US20100048468A1 (Amgen, published 2010).

Like-named read-outs stand apart in the source and are kept apart here. Positions of bridges follow the written chain, without caps; N, C: chain ends. No end group written: not given here.

Usually IC50 stands for the concentration at which inhibition is half-maximal. Low values mean greater potency in that assay, high ones weaker potency in that assay.

In the test with human GLP-1 receptor [1], “HGEGT FTSDV SSYLE [Aib]QAAK EFIAW LVKGR-AMIDE (SEQ ID NO: 14) (peptide)” yielded an EC50 human of 0.016 nM. The EC50 mouse with mouse GLP-1 receptor [2] turned out to be 0.15 nM. Moreover, in the test with human GLP-1 receptor [3], the IC50 came out at 2.5 nM.

B1: H[Aib]EGT FTSDVSSYLEGQAAKEFIAWLVKGRGCSGG (SEQ ID NO: 11) (peptide)
peptide: HXEGTFTSDVSSYLEGQAAKEFIAWLVKGRGCSGG
modifications: Aib (2-aminoisobutyric acid) at position 8 (GLP-1 numbering; residue 2 of the entry)
notes: Unconjugated peptide
B1: in the test with human GLP-1 receptor [4], the EC50 human came to 4 nM. This molecule displayed an EC50 mouse with mouse GLP-1 receptor [5] above 50 nM. In the test with human GLP-1 receptor [6], this molecule had an IC50 of 100 nM.

B2: cgGLP-17 (SEQ ID NO: 11 + 20k PEG) (peptide)
peptide: B1 peptide
modifications: Aib at position 8 (residue 2 of the entry); 20k PEG on the cysteine at position 38 (GLP-1 numbering; residue 32 of the entry)
In the case of B2, the EC50 human with human GLP-1 receptor [4] turned out to be 20 nM. The EC50 mouse with mouse GLP-1 receptor [5] was above 100 nM. Moreover, the IC50 in the test with human GLP-1 receptor [6] is 1000 nM.
On to HGEGTFTSDVSSYLEGCAAKEFIAWLVKGRG (modifications not checked) [cgGLP-9 (SEQ ID NO: 6 + 20k PEG dimer)], for which the EC50 human with human GLP-1 receptor [1] amounted to 1 nM. The EC50 mouse in test [7] came to 9 nM.

B3: cycloE22-O26 (SEQ ID NO: 69) (peptide)
peptide: HGEGTFTSDVSSYLEEQAAXEFIAWLVKGRG
modifications: ornithine at position 26 (GLP-1 numbering; residue 20 of the entry); side-chain cyclic lactam between Glu22 and Orn26; C-terminal amide
notes: Not pegylated
Take B3: in the test with human GLP-1 receptor [8], the EC50 human stood at 0.051 nM. The same molecule yielded an IC50 in the test with human GLP-1 receptor [9] of 3.7 nM.
For HGEGTFTSDVSSYLEGQAAKEFIAWLVKGRGCSG (modifications not checked) [cgGLP-10 (SEQ ID NO: 10 + 20k PEG dimer)], in test [10], the EC50 human stood at 0.6 nM. In [7], the EC50 mouse is 4 nM. Besides, the half-inhibitory concentration (IC50) in test [11] worked out at 100 nM.
Consider HGEGTFTSDVSSYLEGQAAKEFIAWLVKGRGCSG (not fully specified (residue 32), also called cgGLP-09A) [cgGLP-4 & mgGLP-09A (SEQ ID NO: 10 + 20k PEG)], for which the EC50 human in the test with human GLP-1 receptor [4] is 0.23 nM. The EC50 mouse with mouse GLP-1 receptor [5] came to 1.8 nM. Also, the IC50 with human GLP-1 receptor [6] was determined as 130 nM.

B4: cgGLP-6 (SEQ ID NO: 10 + 8k PEG dumbbell) (peptide)
peptide: HGEGTFTSDVSSYLEGQAAKEFIAWLVKGRGCSG
modifications: not fully specified (residue 32); also: dimer: two peptides on one mal-PEG-mal, one at each end
In the test with human GLP-1 receptor [4], B4 showed an EC50 human of around 0.1 nM. In addition, the EC50 mouse with mouse GLP-1 receptor [5] came out at 0.8 nM. Moreover, the IC50 in the test with human GLP-1 receptor [6] came to 11 nM.

B5: GLP1(7-37) cyclo[Lys16-Glu20] (SEQ ID NO: 159) (peptide)
peptide: HGEGTFTSDVSSYLEKQAAEEFIAWLVKGRG-NH2
modifications: lactam 16-20; N-terminus assumed
SMILES: CC[C@H](C)[C@H](NC(=O)[C@H](Cc1ccccc1)NC(=O)[C@H](CCC(=O)O)NC(=O)[C@@H]1CCC(=O)NCCCC[C@H](NC(=O)[C@H](CCC(=O)O)NC(=O)[C@H](CC(C)C)NC(=O)[C@H](Cc2ccc(O)cc2)NC(=O)[C@H](CO)NC(=O)[C@H](CO)NC(=O)[C@@H](NC(=O)[C@H](CC(=O)O)NC(=O)[C@H](CO)NC(=O)[C@@H](NC(=O)[C@H](Cc2ccccc2)NC(=O)[C@@H](NC(=O)CNC(=O)[C@H](CCC(=O)O)NC(=O)CNC(=O)[C@@H](N)Cc2c[nH]cn2)[C@@H](C)O)[C@@H](C)O)C(C)C)C(=O)N[C@@H](CCC(N)=O)C(=O)N[C@@H](C)C(=O)N[C@@H](C)C(=O)N1)C(=O)N[C@@H](C)C(=O)N[C@@H](Cc1c[nH]c2ccccc12)C(=O)N[C@@H](CC(C)C)C(=O)N[C@H](C(=O)N[C@@H](CCCCN)C(=O)NCC(=O)N[C@@H](CCCNC(=N)N)C(=O)NCC(N)=O)C(C)C
B5: the EC50 human in the test with human GLP-1 receptor [8] amounted to 0.016 nM. Moreover, the EC50 mouse in the test with mouse GLP-1 receptor [12] turned out to be 0.1 nM.
